Laboratory results from publication PMC12313019 (2025).

Target: integrin-αvβ1 (UniProt P06756 31-1048; P05556 21-798)
Assay: SPR

integrin-αvβ1, sequence (P06756 31-992, chain 1 of 2): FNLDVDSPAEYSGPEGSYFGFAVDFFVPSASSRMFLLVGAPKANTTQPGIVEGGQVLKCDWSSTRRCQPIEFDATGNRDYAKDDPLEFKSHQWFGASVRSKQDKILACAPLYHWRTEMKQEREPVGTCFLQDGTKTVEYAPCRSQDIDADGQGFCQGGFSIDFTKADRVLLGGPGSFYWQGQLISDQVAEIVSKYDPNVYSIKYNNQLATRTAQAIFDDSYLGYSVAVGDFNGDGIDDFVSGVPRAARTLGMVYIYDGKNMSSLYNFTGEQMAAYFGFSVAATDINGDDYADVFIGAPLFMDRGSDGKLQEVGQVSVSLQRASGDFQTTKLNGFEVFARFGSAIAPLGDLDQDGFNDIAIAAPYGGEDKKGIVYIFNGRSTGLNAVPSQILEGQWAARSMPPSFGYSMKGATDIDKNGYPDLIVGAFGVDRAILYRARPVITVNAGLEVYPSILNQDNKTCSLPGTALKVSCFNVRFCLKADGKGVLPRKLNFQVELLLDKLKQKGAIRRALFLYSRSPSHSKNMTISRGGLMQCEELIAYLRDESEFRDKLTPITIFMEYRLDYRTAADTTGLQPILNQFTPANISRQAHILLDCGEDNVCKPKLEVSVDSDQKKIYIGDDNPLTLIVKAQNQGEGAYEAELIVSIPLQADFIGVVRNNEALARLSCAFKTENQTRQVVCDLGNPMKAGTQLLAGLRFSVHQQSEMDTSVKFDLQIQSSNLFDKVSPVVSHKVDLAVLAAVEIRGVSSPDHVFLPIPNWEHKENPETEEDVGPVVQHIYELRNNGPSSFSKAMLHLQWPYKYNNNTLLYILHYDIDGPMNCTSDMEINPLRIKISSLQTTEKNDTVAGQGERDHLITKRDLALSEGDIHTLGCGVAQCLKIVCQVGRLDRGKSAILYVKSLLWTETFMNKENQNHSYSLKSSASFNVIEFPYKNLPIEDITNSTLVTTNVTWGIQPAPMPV
integrin-αvβ1, sequence (P05556 21-728, chain 2 of 2): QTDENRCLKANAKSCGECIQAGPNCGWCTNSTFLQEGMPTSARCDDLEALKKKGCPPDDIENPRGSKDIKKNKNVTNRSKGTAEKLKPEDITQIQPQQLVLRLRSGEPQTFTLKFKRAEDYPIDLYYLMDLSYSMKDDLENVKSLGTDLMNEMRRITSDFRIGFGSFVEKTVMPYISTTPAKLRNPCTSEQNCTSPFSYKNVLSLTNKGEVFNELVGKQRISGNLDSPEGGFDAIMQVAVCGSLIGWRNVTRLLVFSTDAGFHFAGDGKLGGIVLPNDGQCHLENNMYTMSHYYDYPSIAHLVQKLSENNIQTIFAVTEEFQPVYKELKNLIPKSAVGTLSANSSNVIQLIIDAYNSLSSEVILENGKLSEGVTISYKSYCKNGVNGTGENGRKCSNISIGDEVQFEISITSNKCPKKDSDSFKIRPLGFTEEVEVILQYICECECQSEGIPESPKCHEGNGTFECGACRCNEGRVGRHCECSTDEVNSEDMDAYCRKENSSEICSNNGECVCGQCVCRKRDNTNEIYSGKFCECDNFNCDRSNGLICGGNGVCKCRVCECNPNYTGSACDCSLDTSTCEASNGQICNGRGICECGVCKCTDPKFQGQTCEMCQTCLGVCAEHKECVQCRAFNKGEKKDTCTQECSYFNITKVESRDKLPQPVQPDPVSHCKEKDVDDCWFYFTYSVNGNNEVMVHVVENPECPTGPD

B1: SDC4_(87-131) (peptide)
peptide: NHIPERAGSGSQVPTEPKKLEENEVIPKRISPVEESEDVSNKVSM
modifications: The limits and source of the SPR ligand are not printed. The soluble ectodomain heterodimer is assumed by convention from the UniProt extracellular topology. Alpha-V may be cleaved into heavy and light chains joined by a disulfide. Amine-coupled to a CM5 chip.
A Kd of 43.6 nM was found for B1 in this work.
